Results reported in the domain aggregation screens of Martell et al. (2025).

Test: soluble fraction after stress (log2 fold change); higher = more stays soluble; pooled small domains, quantitative proteomics
Settings: stress: 50 degC
Method in brief: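 The stress applied to every library was 50°C. These custom libraries of small protein domains were pooled and measured at high throughput with quantitative proteomics as the read-out. Aggregation propensity is expressed as the base-two logarithm of the fold change in how much of each protein remains soluble. The higher the value, the more of that protein stays in solution.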

Row | Sequence | soluble fraction (log2)
1 | HMWNGIVDAGKARQHLMNLSQLGVGRRAVAAASDVAETVLMDIRSGTKTRIRARTERQILAVTPEMA | -2.23
2 | HMSQNTHTIPSREDILGIFRSVNAPLDPQSLGKTLQVHADSMDVLVRRLKAMERDGQLKSDASGVFSLAD | 0.119
3 | HMNTISTLEITTKKDIRILDESELLKSKSSKNNIFNYLLASGDFNLLKDKLNEIDEFSDEIISYQLN | -0.611
4 | HMSRVKQERLNRFVEAFEAYFRSVHPGEIDVEYLKSDEFGDIFESILHRVMHTASEEKMHRFKKILLNEM | -2.13
5 | HMNNPLPDLLKYFRKKKHLTQEQVAKQLSVSRASYASYETGRIIPGMQHIMELSRILEHDFLFAYTLAVQ | -2.34
6 | HMGSFFSKATAPVRTTGGDGLYKHGSIWFNTSTGRLFVYIPDDRYTGLLDTHNGDIGYWVDVS | -2.2
7 | HMTSLVRTSNLDGFEPLARSIGVDPVMELMRFGIPPDALIRENMFISFIGFIRLLEHTALAG | 0.103
8 | HMPRNMTFAIRGEYITLDALLKAVGAADSGAQAKHRIAEGEVTVDGVVETRKTRKLRGGETVVVDDLAVVL | -0.272
9 | HMNAVYPNPFVSEIYIGENNRSVEIYNLNGGLVYGMSQPSSRIDVSGLAAGSYILIKKDSSGHISSHKIMK | 0.0698
10 | HMAHRYQQIADDLGRRVEAGEFAAGRLLPSEATLSGQYKASRVTVRKALEALRTDGLVESRQGFGWFVAAD | -0.379
11 | HMRLPNGYGGVTKLSGRRRKPYMVRKTIGWHIDEKTDKKVQDYVVIGYAATKSEALQMLADYNNNPFDV | -3.2
12 | HMALQDKYKQLVDTATASGVANLQVREQDGVLYIDGEAPSGSVKDQLWDIYGKIDPNFLSGDVVMNINV | -0.0683
13 | HMDDSVVFSLNAKGIRLTGAGKYGEAIALFDKAIAAKPGLSGLYFNRAEARRLSGDLPGARSDLEQALAI | -0.453
14 | HMTKTRTEILEYLKQNWSVTVSASDIKKHLEEKEIKANTTTIYRYLDKLLAEHVIIKYADAGSERAVYQYS | -2.31
15 | HMKNKIYGTIVSSTSGEETVYKVFQVDSSKDITYLFRPDMIRLAHENNQALEFNEETGRGKRIEMSDLPK | 0.0213
16 | HMYGHKLDSYESYVVSELRRWPFLSAPQIHDRLKEHFSDLPLVTPKTVFNFVNRLRLTHSLPKE | -3.13
17 | HMKKMEEEFALFNAWVDRRLGIPLAAYKENQMQRRILTIMENSGAKTLREYQQLIEGDEGVRAAFLAHIT | -1.1
18 | HMAVNDPDEKFIELGIPADWVQVVRKAGFQTVEALKTVENPNKLHQELSGLNKKMKLGLKTLSQDEVKDWF | 0.215
19 | HMIPSEQYNTALTEIGLSTRAHNSLRRAGIMTLGQLIEKTRDGLPPLPGFGDKSQVEVQDLLTGLGYPI | -0.203
20 | HMLEDDTVNTAEGIKIGDSFAAVTKAYGTDYVAAGNTYAYSKDKMTLTFVMNNDKVSTISYSLLTS | -0.129
21 | HMASDQGAGALREVSAFFEKHGRVPDPDAVDHDEMRLGSIWASIKSAPTDQMRLEDRFGLLD | 0.1
22 | HMVLGDQTFQSASAPKVFFGGDAAYGPKNIITAVAHGHDAAVSIDRFLHGEDVSKRPGPQVNLVS | 0.144
23 | HMTEKIEWYKEVLDLEPNSKIFFPLAKMLEKEGELEEARRVLAEGVSRHEEFLEARLFYISVLSRL | -0.169

Row | Sequence | soluble fraction (log2)
24 | HMDLYEILGVRRGAGGGEIRRAYRRLARRYHPDVNPGDREAQARYALITRAFETLNDPERRRAYDAGVP | -0.34
25 | HMNNIINEAQIKQWVEEFYLSVSPRPTRATMIALVHKKIKEETKDGEEGQTVSETLINNFYTALEKEHKRK | -0.0384
26 | HMELKFIGEAVNNPKRPLIAILGGAKVSDKIGVIENLLTKADKILIGGAMMFTFLKAEGKNIGTSLVED | 0.0616
27 | HMHSDWITWWYLKDKRFDDDYSLWDRQPVHPEYFEVVKEFKAPPESNPGGLDEVKRILRTYIPDAFAP | -0.976
28 | HMEWNREQLEQIVLQHIRKHGFITRATYTELTGRLKNSALADLKSFAAEGIIKRVGRGNQMHFIVPL | -2.42
29 | HMQEVKVRLKPDYLGEVLIKVISDKGELKAELFVSNSQVRSLLRAYAVEFQNQIRDQGYNFSEINVYR | -0.551
30 | HMENRILIPTAENIGERLDRYISSELDAPRSQVQIWIDSGLVAVSGGLKPKNYRLREGDEIEVTIPDPV | 0.0407
31 | HMDTEVVMINVVGMNIDKAKNSLNHKNILYKISYQDVSEGENNVVLKQSISSNTKIKKGQVVSLVVGKLN | 0.352
32 | HMPVSDLQSALRNTLSKGDATDPAFRQRVYRAAMDALERATGSESDPQRRSEQKQRLIAVIRDMEASYRR | 0.277
33 | HMDVFPDESLKAWLIEMGFKLDQKKMNVFTVLRRMLLQTAPSVKEFRILEIVLQQSRRKLKELNDLKKS | -0.0335
34 | HMSMDYYSTLGVSKTASASDIKKAYRKLAMANHPDKGGDSAKFAKITEAYDVLKDPQKRNNYDQFGTA | 0.162
35 | HMVTEIDYGAFIKMTEEGNIGEVKIEDNQIVFTDKENKAIYKTGIMPDSDLTQRLYDSGAVFA | 0.0785
36 | HMRDLLPHFQRELQFLQTHRNEFAAAYPELGGRLATASDLLDDPHVERMVQSFALLAARVHKRLDDDF | 0.206
37 | HMPLQLPEPMAELARNGETARLAEALKQGLDIDLRDGKGNTLLMIAAYQGRAETVAMLLKAGA | -1.71
38 | HMAMESDELETLVDQLIVDHPDEWSRFVGGDDGDRKKMQGFFTGQIMKATKGQADGRAVAQLLGQKSA | 0.0334
39 | HMQKKEVTVPEVRSKSLKEAAQILSEQNLKYETEPVNVENPDMVVIDQFPKPGGKISEQSVIILYLR | ≥ 0.62
40 | HMSFESMGLTPRQADVLTLLLQGKSNKDIARRLVLSVETVKDHVQAVLRALGVSSRTQAVLAVGQMTQQ | -0.292
41 | HMTEDNDLETIAYDILKERNLNNININVKNGVLNIYGKTETLKEKREIEKILSSLNVSKINNLIKI | 0.315
42 | HMEVTLEEKLSYVEEYAKVHSHFSFRDLLKKQASKTQIVVTFLAILELMKTGKIQITQEHIFDDIVITAK | -0.0755
43 | HMAYQQITIKANVVNVRQGPGLSYDVMSQANKGETMNVISQKNNWYQVRLSGDKIGWVASWLVDNT | -1
44 | HMIIDPQIRTLWTSQIIDILKSNPKRSIRSILELYPSNKESWVLIILQELIGEEKIIRDLDYLYFNK | -2.22
45 | HMLPPVFLTIDANENVIVRKDGEPVQTLNKFELGAFARSQAENSAEQPVVLAADKSIKYEVVMEVI | 0.0698
46 | HMKALPSAEDVALARESGRVLSTVLQTRAETQQIDFHDDKGAVRSVTLPTTALRLLLDVLTEIGQGNAV | -0.23

Row | Sequence | soluble fraction (log2)
47 | HMDGYTAVDKAVSDQYYTKENQLYFVSMGNFFSLGAKKIEGADISSFQILTTEYARDLQHLYFNGKV | -0.383
48 | HMPIRVGDAFESLAGVFPDEYNKALRKSTKKPVFFVPVKVEAGSGALRQKGKITFIVKDGRIDAIQIAL | -1.21
49 | HMADLKRLNEQIHYLGQYLSTKATYKEFLQANNKKIYRSEHQDEIAKYEEAAQFLKRSSPDGTIPTMKDLR | -0.0887
50 | HMEDEFNQIASQKNVPSFLGKGKKEVINIAKKNKIKINLSGNGYVKRQIPAPGEVISHLDEVTIFLEPG | 0.396
51 | HMSAEVEVPDVVGRQVALAVQLIETKKLRVNVAETYDAKVPPGQVISQSPEAGMKVKEERVITIYVSR | -0.167
52 | HMVRDPYELLEVPREATPDEIKSAFRKLAARHHPDRNPDDPGAQERFKEINAAYQLLSDPQKRAMFDRFGA | 0.169
53 | HMTLTIEDQLRRLRARLGRGRAFLFSDVLVNPHDRTEIAVTLLALLELIKRREAQASQSYLFGPIEVAAA | -1.94
54 | HMPPSVAETLKRLRRHKSLSLEELAQMSGVSRSMLSQIERDATNPTVATLWRITAALGVSIDEVLGV | -1.87
55 | HMEPSQEFSLADMVAYDLTGYPKSAALRAAVGASLGIGYGNAKQFVYRLNHYGISKDDFHRAAQEALDGL | -0.87
56 | HMSGQKDVPDLYGMTVKQAKKEVEAAGFKLKEGKEVYSNDYSKGQIAEQDPESGSKAKKGSSITVHVSKG | 0.0677
57 | HMSLNIIEITAKKEINELKSFNIIYFNFDKNNSIYEYKISEREKKEILEIEKIIKNSDNVTNYEIRYSF | -0.52
58 | HMSVLVLPMLKELTHEDREVVELFYLNDMSVREIALIISVPIGTVKSRLHRARAQLKHQIVNLNQ | -3.03
59 | HMKKDNLKKIKSIDEDIENELFKLGIYHFEQISIWSSKNAEWIENFLNLPNYVRANQWVEQAKILK | -1.47
60 | HMSIQQEATGNRIRELLLNNGYTVKDIQEVMGFENPQAVYKWLSGKSLPNLDNLLILSKVLHTSIEDILV | -0.699
61 | HMPKSVRQSFVYSPMYRDVEYLADFLRNNNKDDSSVSASGDKLVYYGTADEIARVKSVLKGVDV | -0.026
62 | HMSVLSVASKNQAINPGQVVALLKDGIKLNDDGRVEILDNNNNIRYNEKGNLLSIEERVKEFLDANPHFRQ | -0.368
63 | HMSTMKIVRVKSNLKIGQEITSKDIEVVEVGAYNMPSEVMKNSEDVIGKYASAEMIKGEYVLAAKISDTP | 0.479
64 | HMKALYHQLVDLLKKRMESGMIPHDKLPSERELTAQYGVSRTTVRLALQELENTGYIYRRHGKGTFVSDI | -2.27
65 | HMSSARKVTVRGVRELPGIFMEKAEILDDGVRFFYRGEMEKLIGALQGLPIRDLTITEPDLEEVFLHFY | -1.09
66 | HMIPKIIDITDLNEEVREVIEEYMKRKRVEKYHIYQDSKGQIFIISGSAIIRYDSKLNNLYYL | -0.405
67 | HMGQLIVTIPNFERRPAEQAIQKLEELGLVPEEKQIYHDDIPAGSVIYTDPSKDSQVNAGTKVYVYVSLG | -0.116
68 | HMSDNHYLLEIFLADLKSDEKFIRELAIFQLHHHIESDKVRAELKAAAETESDPYLKGMIESLLSSTS | -0.943
